Positions count from the first letter of the chain named.
T1: FcγRIIa R type extracellular domain with C-terminal His tag (human, UniProt P12318 34-217)
T1 construct: extracellular domain; also called FcgRIIaR; not shown: His tag at the C terminus
T1 sequence (looked up): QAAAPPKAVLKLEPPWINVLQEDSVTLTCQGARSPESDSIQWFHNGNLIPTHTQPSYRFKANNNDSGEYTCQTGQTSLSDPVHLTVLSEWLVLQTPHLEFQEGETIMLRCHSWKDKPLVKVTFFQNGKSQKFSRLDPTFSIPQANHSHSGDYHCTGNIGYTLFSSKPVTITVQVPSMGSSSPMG

T2: FcγRIIb extracellular domain with C-terminal His tag (human, UniProt P31994 43-217)
T2 construct: extracellular domain; also called FcgRIIb; not shown: His tag at the C terminus
T2 sequence (looked up): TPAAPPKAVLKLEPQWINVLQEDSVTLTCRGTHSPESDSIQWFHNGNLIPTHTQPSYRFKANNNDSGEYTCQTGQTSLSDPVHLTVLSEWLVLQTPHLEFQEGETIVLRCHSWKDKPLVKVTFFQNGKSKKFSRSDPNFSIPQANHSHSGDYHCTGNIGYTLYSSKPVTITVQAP

T3: FcγRIIa H type extracellular domain, His tag (human, UniProt P12318 34-217)
T3 construct: extracellular domain; also called FcgRIIaH
T3 sequence (looked up): T1 sequence (looked up) with R134H

T4: FcγRIIb extracellular domain, His tag (human, UniProt P31994 43-217)
T4 construct: extracellular domain; also called FcgRIIb
T4 sequence (looked up): T2 sequence (looked up)

T5: FcγRIIa R type extracellular domain, His tag (human, UniProt P12318 34-217)
T5 construct: extracellular domain; also called FcgRIIaR
T5 sequence (looked up): T1 sequence (looked up)

B1: IL6R-BP505/IL6R-L (antibody, human IgG1, kappa, name in EU numbering)
heavy: QVQLQESGPGLVKPSETLSLTCAVSGHSISHDHAWSWVRQPPGEGLEWIGFISYSGITNYNPSLQGRVTISRDNSKNTLYLQMNSLRAEDTAVYYCARSLARTTAMDYWGEGTLVTVSSASTKGPSVFPLAPSSKSTSGGTAALGCLVKDYFPEPVTVSWNSGALTSGVHTFPAVLQSSGLYSLSSVVTVPSSSLGTQTYICNVNHKPSNTKVDKKVEPKSCDKTHTCPPCPAPDLLGDDSVFLFPPKPKDTLMISRTPEVTCVVIDVAEEDGDVKFNWYVDGVEVHNAKTKPREEQYNSTYRVVSVLTVLHQDWLNGKEYKCKVSNKALPAPIEKTISKAKGQPREPQVYTLPPSRDELTKNQVSLTCLVKGFYPSDIAVEWESNGQPENNYKTTPPVLDSDGSFFLYSKLTVDKSRWQQGNVFSCSVMHEALHNHYTQESLSLSP
light: not shown
notes: human IgG1
B2: IL6R-BP509/IL6R-L (antibody, human IgG1, kappa, name in EU numbering)
heavy: B1 heavy with Y298D
light: not shown
notes: human IgG1
B3: IL6R-BP508/IL6R-L (antibody, human IgG1, kappa, name in EU numbering)
heavy: B1 heavy with D274P, Y298D
light: not shown
notes: human IgG1
B4: IL6R-BP549/IL6R-L (antibody, human IgG1, kappa, name in EU numbering)
heavy: B1 heavy with D235E, I266V, A269G, D274E, A332R
light: not shown
notes: human IgG1
B5: IL6R-BP562/IL6R-L (antibody, human IgG1, kappa, name in EU numbering)
heavy: B1 heavy with D235E, I266V, A269S, E270D, Y298D, A332R
light: not shown
notes: human IgG1
B6: IL6R-BP494/IL6R-L (antibody, human IgG1, kappa, name in EU numbering)
heavy: B1 heavy with D235E, I266V, D274E, Y298D, A332R
light: not shown
notes: human IgG1
B7: IL6R-BP500/IL6R-L (antibody, human IgG1, kappa, name in EU numbering)
heavy: B1 heavy with D235E, D274E, Y298D
light: not shown
notes: human IgG1
B8: IL6R-BP568/IL6R-L (antibody, human IgG1, kappa, name in EU numbering)
heavy: B1 heavy with D239G, D274E
light: not shown
notes: human IgG1
B9: IL6R-BP559/IL6R-L (antibody, human IgG1, kappa, name in EU numbering)
heavy: B1 heavy with D235E, D239G, Y298D
light: not shown
notes: human IgG1
B10: IL6R-BP567/IL6R-L (antibody, human IgG1, kappa, name in EU numbering)
heavy: B1 heavy with D239G, D274E, Y298D
light: not shown
notes: human IgG1
B11: IL6R-BP564/IL6R-L (antibody, human IgG1, kappa, name in EU numbering)
heavy: B1 heavy with D235E, I266V, A269S, Y298D, A332R
light: not shown
notes: human IgG1
B12: IL6R-BP560/IL6R-L (antibody, human IgG1, kappa, name in EU numbering)
heavy: B1 heavy with D235E, D239G, I266V, A269G, D274E, Y298D, A332R
light: not shown
notes: human IgG1
B13: IL6R-BP504/IL6R-L (antibody, human IgG1, kappa, name in EU numbering)
heavy: B1 heavy with D274P
light: not shown
notes: human IgG1
B14: IL6R-P591/IL6R-L (antibody, human IgG1, kappa)
heavy: B1 heavy with D235E, D239G, F243M, I266V, A269S, E270H, G273P, D274E, Y298E, E441K
light: not shown
B15: IL6R-P602/IL6R-L (antibody, human IgG1, kappa)
heavy: QVQLQESGPGLVKPSETLSLTCAVSGHSISHDHAWSWVRQPPGEGLEWIGFISYSGITNYNPSLQGRVTISRDNSKNTLYLQMNSLRAEDTAVYYCARSLARTTAMDYWGEGTLVTVSSASTKGPSVFPLAPSSKSTSGGTAALGCLVKDYFPEPVTVSWNSGALTSGVHTFPAVLQSSGLYSLSSVVTVPSSSLGTQTYICNVNHKPSNTKVDKKVEPKSCDKTHTCPPCPAPELLGGDSVMLFPPKPKDTLMISRTPEVTCVVVDVSHEDPEVKFNWYVDGVEVHNAKTKPREEVENSTYRVVSVLTVLHQDWLNGKEYKCKVSNKALPAPIEKTISKAKGQPREPQVYTLPPSRDELTKNQVSLTCLVKGFYPSDIAVEWESNGQPENNYKTTPPVLDSDGSFFLYSKLTVDKSRWQQGNVFSCSVMHEALHNHYTQKSLSLSP
light: not shown
B16: IL6R-P603/IL6R-L (antibody, human IgG1, kappa)
heavy: B15 heavy with V297Q, V325I
light: not shown
B17: IL6R-P605/IL6R-L (antibody, human IgG1, kappa)
heavy: B15 heavy with M243F, V297Q, E298D, S300A
light: not shown
B18: IL6R-P663/IL6R-L (antibody, human IgG1, kappa)
heavy: B15 heavy with M243F, V297Q, E298D, S300A, A332H
light: not shown
B19: IL6R-P662/IL6R-L (antibody, human IgG1, kappa)
heavy: B15 heavy with M243F, V297Q, E298D, S300A, S326N
light: not shown

molecular target: T1, FcγRIIa R type extracellular domain …; assay: SPR, antibody captured, FcgR analyte

Kd	Binder
430 nM	B1
520 nM	B2
540 nM	B3
570 nM	B4
680 nM	B5
250 nM	B6
720 nM	B7
680 nM	B8
1600 nM	B9
890 nM	B10
580 nM	B11
4200 nM	B12
450 nM	B13

molecular target: T2, FcγRIIb extracellular domain with …; assay: SPR, antibody captured, FcgR analyte

Kd	Binder
21 nM	B1
18 nM	B2
21 nM	B3
16 nM	B4
24 nM	B5
6.6 nM	B6
24 nM	B7
15 nM	B8
28 nM	B9
14 nM	B10
22 nM	B11
180 nM	B12
24 nM	B13

molecular target: T6, FcγRIa extracellular domain with C-terminal His tag (human, UniProt P12314 16-292); assay: SPR, antibody captured, FcgR analyte
T6 construct: also called FcgRIa; CD64; not shown: His tag at the C terminus
T6 sequence (P12314 16-292): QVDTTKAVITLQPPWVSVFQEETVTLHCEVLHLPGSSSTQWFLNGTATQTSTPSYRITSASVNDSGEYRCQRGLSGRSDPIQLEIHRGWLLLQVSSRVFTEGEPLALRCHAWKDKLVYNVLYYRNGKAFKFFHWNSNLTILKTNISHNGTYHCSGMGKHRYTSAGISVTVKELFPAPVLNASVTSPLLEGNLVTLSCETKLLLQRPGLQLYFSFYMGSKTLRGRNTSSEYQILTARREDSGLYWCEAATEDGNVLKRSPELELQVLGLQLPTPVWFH

Kd	Binder
1.1 nM	B1
1.1 nM	B2
1.4 nM	B3
18 nM	B4
25 nM	B5
3.9 nM	B6
2.3 nM	B7
0.19 nM	B8
1.1 nM	B9
0.21 nM	B10
31 nM	B11
5.6 nM	B12
1.4 nM	B13

molecular target: T3, FcγRIIa H type extracellular domain, …; assay: SPR, KD ratio

Relative FcgRIIaH-binding Activity	Binder
0.011 fold of IL6R-G1d/IL6R-L	B14
0.01 fold of IL6R-G1d/IL6R-L	B15
0.009 fold of IL6R-G1d/IL6R-L	B16
0.007 fold of IL6R-G1d/IL6R-L	B17

molecular target: T4, FcγRIIb extracellular domain, His tag; assay: SPR, KD ratio

Relative FcgRIIb-binding Activity	Binder
1.65 fold of IL6R-G1d/IL6R-L	B14
2.13 fold of IL6R-G1d/IL6R-L	B15
1.9 fold of IL6R-G1d/IL6R-L	B16
0.977 fold of IL6R-G1d/IL6R-L	B17

molecular target: T7, FcγRIIIa V type extracellular domain, His tag (human, UniProt P08637 17-208); assay: SPR, KD ratio
T7 construct: extracellular domain; also called FcgRIIIaV
T7 sequence (P08637 17-208 F176V): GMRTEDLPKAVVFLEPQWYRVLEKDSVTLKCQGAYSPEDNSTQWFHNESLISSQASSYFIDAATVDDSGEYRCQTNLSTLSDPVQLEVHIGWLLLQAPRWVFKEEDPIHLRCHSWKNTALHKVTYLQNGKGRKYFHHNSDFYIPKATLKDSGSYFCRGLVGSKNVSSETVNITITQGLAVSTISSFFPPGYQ

Relative FcgRIIIaV-binding Activity	Binder
0.008 fold of IL6R-G1d/IL6R-L	B14
0.006 fold of IL6R-G1d/IL6R-L	B15
0.004 fold of IL6R-G1d/IL6R-L	B16
0.008 fold of IL6R-G1d/IL6R-L	B17

molecular target: T8, FcγRIa extracellular domain, His tag (human, UniProt P12314 16-292); assay: SPR, KD ratio
T8 construct: whole entry named; also called FcgRIa
T8 sequence (P12314 16-292): as the sequence (P12314 16-292) above

Relative FcgRIa-binding Activity	Binder
0.0138 fold of IL6R-G1d/IL6R-L	B14
0.0174 fold of IL6R-G1d/IL6R-L	B15
0.015 fold of IL6R-G1d/IL6R-L	B16
0.0384 fold of IL6R-G1d/IL6R-L	B17

molecular target: T5, FcγRIIa R type extracellular domain, …; assay: SPR, KD ratio

Relative FcgRIIaR-binding Activity	Binder
0.034 fold of IL6R-G1d/IL6R-L	B14
0.028 fold of IL6R-G1d/IL6R-L	B15
0.026 fold of IL6R-G1d/IL6R-L	B16
0.021 fold of IL6R-G1d/IL6R-L	B17

molecular target: T4, FcγRIIb extracellular domain, His tag; assay: SPR, bound amount per captured antibody

Relative FcgRIIb-binding Activity	Binder
131 % of IL6R-G1d/IL6R-L	B14
79.7 % of IL6R-G1d/IL6R-L	B18
112 % of IL6R-G1d/IL6R-L	B15
130 % of IL6R-G1d/IL6R-L	B16
73.3 % of IL6R-G1d/IL6R-L	B19
82 % of IL6R-G1d/IL6R-L	B17

molecular target: T5, FcγRIIa R type extracellular domain, …; assay: SPR, bound amount per captured antibody

Relative FcgRIIaR-binding Activity	Binder
20 % of IL6R-G1d/IL6R-L	B14
10.1 % of IL6R-G1d/IL6R-L	B18
18.1 % of IL6R-G1d/IL6R-L	B15
16.9 % of IL6R-G1d/IL6R-L	B16
11.2 % of IL6R-G1d/IL6R-L	B19
13.5 % of IL6R-G1d/IL6R-L	B17

molecular target: T1, FcγRIIa R type extracellular domain …; assay: SPR; KD of IL6R-B3/IL6R-L divided by KD of variant

Relative FcgRIIaR-binding Activity	Binder
2.5	B1
2.1	B2
2	B3
1.9	B4
1.6	B5
4.3	B6
1.5	B7
1.6	B8
0.7	B9
1.2	B10
1.9	B11
0.3	B12
2.4	B13

molecular target: T2, FcγRIIb extracellular domain with …; assay: SPR; KD of IL6R-B3/IL6R-L divided by KD of variant

Relative FcgRIIb-binding Activity	Binder
144	B1
174	B2
149	B3
196	B4
131	B5
470	B6
128	B7
210	B8
110	B9
224	B10
140	B11
16.8	B12
127	B13
